In one assay the target is T1, recombinant human FAP (Homo sapiens, UniProt Q12884).
T1 construct: purchased Sino Biologicals 10464-H07H
T1 sequence (Q12884 26-760 limits assumed): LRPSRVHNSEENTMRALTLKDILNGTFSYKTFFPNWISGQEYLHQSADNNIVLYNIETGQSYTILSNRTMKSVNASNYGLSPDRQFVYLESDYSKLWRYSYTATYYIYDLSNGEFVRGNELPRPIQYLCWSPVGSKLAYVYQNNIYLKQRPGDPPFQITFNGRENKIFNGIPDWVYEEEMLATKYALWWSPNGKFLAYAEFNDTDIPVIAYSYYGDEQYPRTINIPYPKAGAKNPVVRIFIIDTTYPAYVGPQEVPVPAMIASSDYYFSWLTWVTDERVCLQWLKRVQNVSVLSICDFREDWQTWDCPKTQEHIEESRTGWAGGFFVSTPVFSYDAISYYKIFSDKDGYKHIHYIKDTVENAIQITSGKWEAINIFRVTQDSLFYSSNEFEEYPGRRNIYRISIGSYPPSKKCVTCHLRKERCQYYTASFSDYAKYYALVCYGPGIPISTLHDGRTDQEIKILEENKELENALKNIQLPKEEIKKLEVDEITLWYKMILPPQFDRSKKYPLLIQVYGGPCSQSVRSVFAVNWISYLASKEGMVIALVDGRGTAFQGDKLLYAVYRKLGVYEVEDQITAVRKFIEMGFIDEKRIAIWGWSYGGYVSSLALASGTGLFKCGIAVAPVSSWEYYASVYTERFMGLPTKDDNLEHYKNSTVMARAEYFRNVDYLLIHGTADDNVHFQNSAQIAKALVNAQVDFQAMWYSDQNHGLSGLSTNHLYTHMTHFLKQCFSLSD
Description: mechanism of inhibition of rhuFAP-mediated PEP (Z-Gly-Pro-AMC) cleavage. In kind it is biochemical. As to conditions: 0-1000 nM antibody, 20-100 μM Z-Gly-Pro-AMC; Lineweaver-Burk. How it is done:
A black flat bottom standard 96-well ELISA plate was blocked for 1 hr at 37° C. using sterile blocking buffer: 5% bovine serum albumin (BSA) in phosphate buffered saline (PBS). 10 μL of recombinant human FAP solution: 0.4 nM recombinant human FAP (Sino Biologicals, 10464-H07H), in 225 mM Sodium phosphate buffer, pH 7.4) was added to each well. Then, 80 μL of NI-206.82C2 at the indicated concentrations in PBS were added to the wells incubated for 1 hr at 37° C. Then, 10 μL of fluorogenic substrate solution (Z-Gly-Pro-AMC in 40% methanol and 60% 25 […]) was added to each well. The fluorescence intensity was measured at 360 nm excitation and 460 nm emission every 3 min over a total reading time of 2 hr.

Assay [1] relates to obstructive human coronary thrombi and aortic atherosclerotic plaque. The assay can be described thus: confocal immunofluorescence on human coronary thrombi and aortic atherosclerotic plaque. The conditions noted are these: Cy3 labelled antibody. How it is done:
NI-206.82C2 was labelled with Cyanine 3 for fluorescent imaging (Cy3 conjugation kit: Innova Biosciences, 340-0030) and antibody labelling was validated using a spectophotometer. Cryosections from myocardial infarction causing obstructive human coronary thrombi (FIG. 14, A) and human aortic atherosclerotic plaque (FIG. 14, B) were fixed for 5 minutes in ice cold acetone and allowed to dry for 10 minutes before washing in PBS. The sections were then incubated for 1 hr at room temperature in 5% BSA in PBS, and then incubated with Cyanine 3 labelled antibodies overnight at 4° C., before washing three times in PBS before incubation with DAPI at 0.5 μg/mL. Sections were then washed three additional times in PBS and mounted in Lisbeth's mounting medium before imaging on a SP8 confocal microscope (Leica Microsystems).

The target in assay [2] is T2, active recombinant mouse FAP (Mus musculus, UniProt P97321).
T2 construct: expressed in a HEK293 cell line without the transmembrane and intracellular domains and an N-terminal 6× histidine tag; made in house; host or cells: HEK293
T2 sequence (P97321 26-761 limits assumed): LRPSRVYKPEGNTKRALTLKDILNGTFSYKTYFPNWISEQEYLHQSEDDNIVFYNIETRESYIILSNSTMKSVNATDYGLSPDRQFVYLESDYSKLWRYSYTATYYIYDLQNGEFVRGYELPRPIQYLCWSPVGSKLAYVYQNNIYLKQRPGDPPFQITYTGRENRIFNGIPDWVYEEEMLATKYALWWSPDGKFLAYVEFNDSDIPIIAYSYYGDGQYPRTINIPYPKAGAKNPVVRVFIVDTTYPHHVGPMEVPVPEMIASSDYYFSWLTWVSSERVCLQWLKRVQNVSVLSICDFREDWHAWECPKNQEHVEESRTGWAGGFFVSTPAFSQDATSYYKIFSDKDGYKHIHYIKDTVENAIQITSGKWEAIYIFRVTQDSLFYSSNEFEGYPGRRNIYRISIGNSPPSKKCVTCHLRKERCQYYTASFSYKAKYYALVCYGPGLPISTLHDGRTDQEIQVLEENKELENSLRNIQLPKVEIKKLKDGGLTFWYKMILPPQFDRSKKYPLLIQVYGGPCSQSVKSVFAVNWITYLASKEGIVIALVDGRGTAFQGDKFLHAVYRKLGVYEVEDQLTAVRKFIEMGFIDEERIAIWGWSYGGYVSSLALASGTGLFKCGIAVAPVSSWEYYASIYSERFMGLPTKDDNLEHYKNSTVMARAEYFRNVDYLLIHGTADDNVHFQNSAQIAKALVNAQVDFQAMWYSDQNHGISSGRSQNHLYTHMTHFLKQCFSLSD
Description: DQ-gelatin cleavage inhibition, active recombinant mouse FAP. Format: biochemical. How it is done:
To determine the inhibitory ability of NI-206.82C2 against active recombinant murine FAP, recombinant murine FAP was expressed in a HEK293 cell line without the transmembrane and intracellular domains and an N-terminal 6× histidine tag. A 96-well ELISA plate was then coated with 50 uL of murine anti-His tag antibody at 6 μg/mL in PBS overnight at 4° C. The wells were then blocked with 60 μL of 2% BSA in PBS for 1 h at room temperature, and 50 μL of recombinant mouse FAP containing cell culture supernatant diluted 1:4 was added to the well and incubated overnight at 4C while gently shaking. Following three washing steps with PBS, 20 uL of sterile 12.5% BSA/PBS solution was added to all wells.

B1: NI-206.82C2: human-derived recombinant anti-FAP antibody; VH SEQ ID NO: 2 or 4 (PIMC), VL SEQ ID NO: 6 (antibody, V domains shown)
VH: QVQLQQSGPGLVKPSQTLSLTCAISGDSVSSNSVTWNWIRQSPSRGLEWLGRTYYRSKWYNDYAVSVKGRITINPDTSKNQFYLQLKSVTPEDAAVYYCARDSSILYGDYWGQGTLVTVSS
VL: QAVLTQPSSLSASPGASASLTCTLPSGINVGTYRIFWFQQKPGSPPQYLLSYKSDSDNHQGSGVPSRFSGSKDASANAGILLISGLQSEDEADYYCMIWHSSAWVFGGGTKLTVL
For the molecule B1, in the assay with recombinant human FAP, the “type of inhibition of FAP-mediated PEP cleavage” value was “non-competitive inhibitor”. Besides, the “binding to human coronary thrombi and aortic atherosclerotic plaque” value in assay [1] was “binds”. Further, in assay [2], the “potency for inhibiting active recombinant mouse FAP compared to Val-boro-Pro and F19” value was “higher potency”.
